Measurements: patent US20210324050A1 (published 2021)
Like-named read-outs stand apart in the source and are kept apart here.

T1: GII.4 Sydney 2012 shell (S) domain (UniProt P54635 1-221)
T1 chain: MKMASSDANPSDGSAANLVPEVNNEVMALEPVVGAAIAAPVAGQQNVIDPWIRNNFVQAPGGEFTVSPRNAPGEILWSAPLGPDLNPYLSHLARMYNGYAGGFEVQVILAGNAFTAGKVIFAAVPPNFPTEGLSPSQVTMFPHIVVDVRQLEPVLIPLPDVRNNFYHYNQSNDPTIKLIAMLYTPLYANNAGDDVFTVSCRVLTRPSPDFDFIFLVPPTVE


What was measured:
[1] = target: Glutathione S-transferase (GST)-tagged GII.4 Sydney 2012 P domain dimers; experiment: ELISA
[2] = target: T2, GII.4 Houston 2002 (ABY27560.1) VLPs (UniProt P54635 1-539); experiment: VLP blockade
[3] = target: T2, GII.4 Houston 2002 (ABY27560.1) VLPs; experiment: ELISA binding
GI.3 = GI.3 (norovirus GI.3); experiment: ELISA
GII.3 = GII.3 (norovirus GII.3); experiment: ELISA
GII.17 = GII.17 (norovirus GII.17); experiment: ELISA
GII.13 = GII.13 (norovirus GII.13); experiment: ELISA
[4] = target: T1, GII.4 Sydney 2012 shell (S) domain; experiment: ELISA
[5] = target: T1, GII.4 Sydney 2012 shell (S) domain; experiment: ELISA
GII.6 (AF414410) VLPs = GII.6 (AF414410) VLPs (norovirus GII.6); experiment: ELISA

Binder | EC50 [1] [µg/mL] | EC50 [2] [µg/mL] | EC50 [3] [µg/mL] | other results
NORO-250B (antibody, V domains shown) VH: QVQLVESGGGLVKPGGSLTLSCAASGFTFSDYYMNWIRQAPGKRLEWVSYISGIMSSTNYADSVKGRFTISRDTAKKSVYLQMNSLRAEDTAVYYCARATSQGATSYYFDSWGQGTLVTVSS VL: QSVLTQPPSVSGAPGQRVTISCTGSSSNIGADYDVHWYQQLPGAAPRLLIYADINRPSGVPDRFSGSKSGTSASLAITGLQAEDEADYYCQSYDRSVSGSAVFGGGTKVTVL | 0.1 | 17.9 | 0.1 | 
NORO-317 (antibody, V domains shown) VH: QVQLVESGGGLVKPGGSLRLSCVASGFTFSDYYISWVRQAPGKGLEWVSYISAINSYTNYADSVRGRFTVSRDNAKKSVFLQMNSLRVDDTAVYYCARDVGGSVRYSSNSNKKSYNYFDPWGQGTLVTVSS VL: SYELTQPPSVSVSPGQTATITCSGDVLSKEFAYWYQQKPGQAPVLVIYKDNERPSGIPERFSGSTSGTTVTLTISGVLAEDEAHYYCQSVDTRGTYKVFGGGTKLTVL | 0.2 |  |  | 
279A (antibody, V domains shown) VH: QVQLVESGGGVVQPGRSLRLSCAASGFTFTKYGMHWVRQAPGKGLEWVAFIAYDGSVKYYGDSAKGRFAISRDNPKNTVYLQMNSLRAEDTAVYYCAKVEIHYYSNSLLGMDVWGQGTLVTVSS VL: QSVLTQPPSASGTPGQRVTISCSGGNSNIGISYVYWYQHLPGTAPKLLISKNNLRPSGVPDRFSASKSGTSASLAISGLRSEDEAEYYCATLDINMTWVFGGGTKLTVL |  |  |  | EC50 (GI.3): 70 nM; EC50 (GII.3): 14 nM; EC50 (GII.17): 18 nM; EC50 (GII.13): 10 nM
NORO-329A (antibody, V domains shown) VH: QVQLVESGGGLVKPGGSLRLSCAASGFTFSDYYMSWIRQAPGKGLEWISYISSSFGSTDYAGSMKGRFTISRDNAKNSLYLQMNSLRAEDTAVYYCARYNYYGSGSFVFDYWGQGTLVTVSS VL: not shown |  |  |  | EC50 [4]: 35.8 µg/mL
NORO-313.1 (antibody, V domains shown) VH: QVQLVESGGGLVKPGGSLRLSCAASGFTFSDFYMSWIRQAPGKGLEWVGYISSIAGATNYADSVKGRFTISRDSSKRSLYLQMNSLRVEDTAVYYCARMGRLELERRPHYYYPLDVWGQGTLVTVSS VL: not shown | 0.8 | 2.1 | 0.1 | 
NORO-178.6 (antibody, V domains shown) VH: QVQLVESGGGVVQPGRSLRLSCAASGFTFSTYGMNWVRQAPGRGLEWVADISYDGSNSRYADSVKGRFTISRDNSKNTLSLQMNGLRTEDTAVYYCAKDWYLAMAGAAFDSWGPGTLVTVSS VL: SSELTQDPVVSVALGQTVRITCQGDSLTTFYASWFQQKPGQAPALVLYGNDNRPSGIPDRFSGSRSGNTASLTITGAQAEDEADYYCNSRDSSGKPSFGGGTKLTVL |  |  |  | EC50 [5]: 8 nM; EC50 (GII.6 (AF414410) VLPs): 20 nM
NORO-263 (antibody, V domains shown) VH: QVQLVESGGGLVKPGGSLRLSCAASGFTLSDYYMSWIRQAPGKGLEWVAYISSSHTSTYYRDSVKGRFTISRDSAKKSLYLQMNSLRVEDTAIYYCARDWVGGRSAYSDHWGQGTLVTVSS VL: SYELTQPPSVSVSPGQTARITCSGDALPRRPAFWYQQKSGQAPVLVMYDDSKRPSGIPERFSGSSSGTVATLTISGAQVEDEADYHCYSTDSSGKERVFGGGTKLTVL | 0.9 | 2.1 | 0.5 | 
NORO-273A (antibody, V domains shown) VH: QVQLVQSGAEVKKPGASVKISCKASGYDFTSFPMHWVRLGPGQRLEWMGWISAANGNTKYSQKFQDRFTITRDTSASIVHMELSSLRSEDTAVYYCARGGYSSGLYRYSNYYYGMTVWGQGTLVTVSS VL: DIVMTQTPLSLSVTPGQPASISCKSSESLLHNDRKTYLFWYLQKPGQPPQLLIFQVSNRFSGVPDRFSGSGSGTDFTLRISRVEAEDVGIYYCLQTTQLPLTFGGGTKVEIK |  | 5.2 |  | 
NORO-251A (antibody, V domains shown) VH: QVQLVESGGGVVQPGRSLRLSCAASGFTFRSYGIHWVRQAPGKGLEWVALISYDGSSKYYADSVKGRFTISRDNSKNTLYLQMNSLRSEDTAVYYCAKVRLTSYSIGWFSFDYWGQGTLVTVSS VL: QSVLTQPPSVSAAPGQKVTISCSGSSSNIANYYVSWYQQLPGRAPKLLIYDNNKRPSGIPDRISGSKSGTSATLGITGLQTGDEADYYCGTWDTSLSAWVFGGGTKLTVL |  | > 100 | 0.3 | EC50 [4]: 4.1 µg/mL
NORO-115 (antibody, V domains shown) VH: QVQLVESGGGLVKPGGSLRLSCTASGITISGYYMSWIRQAPGKGLEWIVYINTSGRTIYYADSVKGRFSVSRDNAKESLYLQMDSLTVDDTGIYYCARDRLPASGSHWFHPWGQGTLVTVSS VL: DIVMTQSPDSLAVSLGGRATINCKSSQSVLYTSDNKNYLAWYQQQPGQPPKLLISWASTRESGVPDRFSGSGSGTDFTLTISNLQAEDVAVYYCQQYYNSPLAFGGGTKVEIK | 0.1 | 2.3 | 1.1 | 
NORO-315B (antibody, V domains shown) VH: QVQLVESGGGLVKPGGSLRLSCVASGFTFSDYYMTWFRQTPGRGLEWLSYISAIGGYTEYADSVKSRFIISRDNGKKSLYLQMNSLRAEDSGVYYCAREDCHGTSCYSGDWGQGTLVTVSS VL: QSVLTQPPSVSGAPGQRVTISCTGSSSNIGAGYDVHWYQQLPGTAPKLLIYHNTNRPSGVPDRFSGSKSGTSAYLTITGLQAEDEADYYCQSYDRSLSKSRVFSGGTKLTVL | 0.3 | 2.2 | 0.5 | 
NORO-278 (antibody, V domains shown) VH: QVQLVESGGGVVQPGRSLRLSCAASGFTFSSYGMHWVRQAPGKGLEWVAVISYDGSNKYYADSVKGRFTISRDNSKNTLYLQMNSLRAEDTAVYYCAKVTIIAAADLLDYWGQGTLVTVSS VL: QSVLTQPPSVSGAPGQRVTISCTGSSSNIGAGYDVHWYQQLPGTAPKLLIYGNSNRPSGVPDRFSGSKSGTSASLAITGLQAEDEADYYCQSYDSSLSGPVVFGGGTKLTVL | 68.5 | > 100 | 0.5 | 
NORO-312A (antibody, V domains shown) VH: QVQLVESGGALVKPGESLRLSCAASGFTFSDSYMSWIRQAPGKGLEWVAYISGIMSSTNYADSVKGRFTISRDNGKNSVYLQMNNLRAEDTAVYYCARDAQYCSGGRCYLVFDYWGQGTLVTVSS VL: QSVLTQPPSVSGAPGQRVTISCTGSSSNIGAGYEVHWYQQLPGAAPKLIIYGNNNRPSGVPDRFSGSKSGTSASLAITGLQADDEADYYCQSYDNRLRVFGGGTKLTVL |  |  |  | EC50 [4]: 9.9 µg/mL
NORO-123 (antibody, V domains shown) VH: QVQLVESGGGVVQPGRSLRLSCSTSGFTFSQYPMHWVRQAPGKGLEWVALISYDGMNKYYADSVRGRFTISRDNSENTQYLQMNSLRGDDTAVYYCARVTGDCTGNRCSYWAYYYYGLDVWGQGTLVTVSS VL: QSALTQPPSASGSPGQSVTISCTGTSSDVGGYKYVSWYQQHPGKAPKLMIYEVTRRPSGVPDRFSGSKSGNTAFLTVSGLQAEDEADYYCGSYAGSTTSGYVFGTGTKVIVL | 6.1 | 2.5 | 0.6 | 
NORO-256A (antibody, V domains shown) VH: QVQLVESGGGVVQAGRSLRLSCAASGFTFRSYGMHWVRQAPGKGLEWVAIISYDGGSKYYADSVKGRFTISRDNSKNTLYLQMNSLRVEDTALYYCAKDFLRVYSYGWHSFDIWGLGTLVTVSS VL: QSVLTQPPSVSAAPGQRVTISCSGSSSNIGTYYVSWYQHLPGTAPKLLIYDNDKRPSGIPDRFSASKSGTSATLDIAGLQTGDEADYYCGTWDLSLTAGWVFGGGTKLTVL |  | > 100 | 0.4 | EC50 [4]: 0.4 µg/mL
NORO-296A (antibody, V domains shown) VH: QVQLVESGGGLVKPGGSLRLSCAASGFTFSEYYMSWVRQAPGKALEWVSYITSSFSSTSYADSVKGRFVISRDNAKNSLYLQMNSLRVEDTAVYYCARYGAEYGSRSFYFLDWGQGTLVTVSS VL: QSVLTQPPSVSGAPEQRVTISCTGSSSNIGAGYDVHWYQVLPGIAPKLLIYDNNKRPSGVPDRFSGSKSGTSASLAITGLQAEDEADYYCQSYDSRLSSNVVFGGGTKLTVL |  | 3.2 | 0.1 | EC50 [4]: 12.5 µg/mL
NORO-303 (antibody, V domains shown) VH: QVQLVESGGGVVQPGRSLRLSCAASGFIFSSYAMHWVRQAPGKGLEWVAVMSYDGNNKYYADSVKGRFTISRDNSKNTLFLQMNSLRPEDTAVYYCARDCRVGWVFTYGMDVWGQGTLVTVSS VL: QSALTQPPSASGSPGQSVTISCTGTSSDVGGYNYVSWYQQHPGKAPKLMMYEISKRPSGVPIRFSGSKSGNTASLTVSGLQAEDEADYYCSSYAGTYNCVVFGGGTKLTVL | 6.8 | > 100 |  | 
202A.1 (antibody, V domains shown) VH: QVQLVQSGAEVKKPGASVKVSCKASEYTFTGYYLQWVRQAPGHGLEWMGWINPSGGTKYSQKFQGRVTMTRDTSITTVYMELSRLRSDDTAVYYCARDLLRNWGDHDAFDVWGQGTMVTVSS VL: QSVLTQPPSASETPGQGVTISCSGSSSNIGSNFVCWYQQVPGTAPKLLIYKNNQRPSGVPDRFSGSKSGTSASLAISGLRSEDEADYYCSAWDDSLSGPVFGGGTKLTVL |  |  |  | EC50 (GII.3): 41 nM; EC50 (GII.13): 4 nM
